{
  "source": "patent US20250281586A1",
  "about": "(ELANCO US, published 2025)",
  "key": {"[1]": {"target": "T1, recombinant mouse IL-1RI Fc chimera (R&D 771-MR-100) (mouse, UniProt P13504 20-338)", "T1 construct": "Coated on ELISA plates at 1 µg/ml; used in place of canine and feline IL-1RI, which were not commercially available; also called IL-1RI receptor; Fc part of the bought chimera not given; not described", "T1 sequence (looked up)": "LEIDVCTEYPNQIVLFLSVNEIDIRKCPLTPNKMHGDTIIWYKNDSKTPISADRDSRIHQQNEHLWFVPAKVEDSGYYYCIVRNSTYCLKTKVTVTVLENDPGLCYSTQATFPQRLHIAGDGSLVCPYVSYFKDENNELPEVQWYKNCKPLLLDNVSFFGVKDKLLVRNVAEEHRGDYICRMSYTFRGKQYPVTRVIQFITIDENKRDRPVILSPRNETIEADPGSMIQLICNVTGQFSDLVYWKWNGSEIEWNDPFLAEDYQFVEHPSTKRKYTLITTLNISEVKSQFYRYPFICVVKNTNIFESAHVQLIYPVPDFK", "assay": "ELISA on coated mouse IL-1RI Fc chimera, detection with biotinylated anti-fIL-1β antibody"}, "[2]": {"target": "T1, recombinant mouse IL-1RI Fc chimera …", "assay": "ELISA on coated mouse IL-1RI Fc chimera"}, "[3]": {"target": "T1, recombinant mouse IL-1RI Fc chimera …", "assay": "ELISA on coated mouse IL-1RI Fc chimera, detection with biotinylated anti-cIL-1β antibody"}},
  "data": [
    {"binder": "feline IL-1β-D145K mutein antigen (ligand, also called fIL-1β-D145K antigen) GSAAIQSQDYTFRDISQKSLVLSGSYELRALHLNGQNMNQQVVFRMSFVHGEENSKKIPVVLCIKKNNLYLSCVMKDGKPTLQLEMLDPKVYPKKKMEKRFVFNKTEIKGNVEFESSQFPNWYISTSQAEEMPVFLGNTKGGQDITKFIMESASTSHHHHHHGGCG", "values": [
      {"measurement": "binding result", "setting": "[1]", "result": "binds"}
    ]},
    {"binder": "cIL1b-D145K-CMV-Ntt830-E4 VLPs (other, engineered free cysteine linked to the maleimide of SMPH bound to the VLP; lysine on the VLP surface derivatized with SMPH, also called cIL1b-D145K-CMV-Ntt830-E4 vaccine; cIL-1b-D145K-CMV vaccine) chain 1: MGQYIKANSKFIGITERRRRPRRGSRSAPSSADANFRVLSQQLSRLNKTLAAGRPTINHPTFVGSERCKPGYTFTSITLKPPKIDRGSGGGSEEEEGGGSGSYYGKRLLLPDSVTEYDKKLVSRIQIRVNPLPKFDSTVWVTVRKVPASSDLSVAAISAMFADGASPVLVYQYAASGVQANNKLLYDLSAMRADIGDMRKYAVLVYSKDDALETDELVLHVDVEHQRIPTSGVLPV chain 2: MGSAAMQSVDCKLQDISHKYLVLSNSYELRALHLNGENVNKQVVFHMSFVHGDESNNKIPVVLGIKQKNLYLSCVMKDGKPTLQLEKVDPKVYPKRKMEKRFVFNKIEIKNTVEFESSQYPNWYISTSQVEGMPVFLGNTRGGQDITKFTMEFSSTSHHHHHHGGCG", "values": [
      {"measurement": "binding result", "setting": "[2]", "result": "binds"}
    ]},
    {"binder": "fIL-1b-D145K-CMV-Ntt830-E4 VLPs (other, engineered free cysteine linked to the maleimide of SMPH bound to the VLP; lysine on the VLP surface derivatized with SMPH, also called fIL-1b-D145K-CMV-Ntt830-E4 vaccine; fIL1b145K-CMV-Ntt830-E4 vaccine) chain 1: MGQYIKANSKFIGITERRRRPRRGSRSAPSSADANFRVLSQQLSRLNKTLAAGRPTINHPTFVGSERCKPGYTFTSITLKPPKIDRGSGGGSEEEEGGGSGSYYGKRLLLPDSVTEYDKKLVSRIQIRVNPLPKFDSTVWVTVRKVPASSDLSVAAISAMFADGASPVLVYQYAASGVQANNKLLYDLSAMRADIGDMRKYAVLVYSKDDALETDELVLHVDVEHQRIPTSGVLPV chain 2: GSAAIQSQDYTFRDISQKSLVLSGSYELRALHLNGQNMNQQVVFRMSFVHGEENSKKIPVVLCIKKNNLYLSCVMKDGKPTLQLEMLDPKVYPKKKMEKRFVFNKTEIKGNVEFESSQFPNWYISTSQAEEMPVFLGNTKGGQDITKFIMESASTSHHHHHHGGCG", "values": [
      {"measurement": "binding result", "setting": "[2]", "result": "binds"}
    ]},
    {"binder": "canine IL-1β-D145K mutein antigen (ligand, expressed in E. coli and purified by IMAC and gel filtration; also called cIL-1β-D145K antigen; cIL1b-D145K-C6Hcg) MGSAAMQSVDCKLQDISHKYLVLSNSYELRALHLNGENVNKQVVFHMSFVHGDESNNKIPVVLGIKQKNLYLSCVMKDGKPTLQLEKVDPKVYPKRKMEKRFVFNKIEIKNTVEFESSQYPNWYISTSQVEGMPVFLGNTRGGQDITKFTMEFSSTSHHHHHHGGCG", "values": [
      {"measurement": "binding result", "setting": "[3]", "result": "binds"}
    ]},
    {"binder": "canine IL-1β wild type of SEQ ID NO:29 (ligand, also called purified canine IL-1β wild type; wild type canine IL-1β) AAMQSVDCKLQDISHKYLVLSNSYELRALHLNGENVNKQVVFHMSFVHGDESNNKIPVVLGIKQKNLYLSCVMKDGKPTLQLEKVDPKVYPKRKMEKRFVFNKIEIKNTVEFESSQYPNWYISTSQVEGMPVFLGNTRGGQDITDFTMEFSS", "values": [
      {"measurement": "binding result", "setting": "[3]", "result": "binds"}
    ]},
    {"binder": "commercially available recombinant canine IL-1β protein (R&D 3747-CL-025) (ligand, UniProt Q28292 115-266, looked up, Bought protein; also called recombinant canine IL-1β purchased from R&D system; commercially available canine IL-1β standard) AAMQSVDCKLQDISHKYLVLSNSYELRALHLNGENVNKQVVFHMSFVHGDESNNKIPVVLGIKQKNLYLSCVMKDGKPTLQLEKVDPKVYPKRKMEKRFVFNKIEIKNTVEFESSQYPNWYISTSQVEGMPVFLGNTRGGQDITDFTMEFSS", "values": [
      {"measurement": "binding result", "setting": "[3]", "result": "binds"}
    ]},
    {"binder": "purified feline IL-1β wild type of SEQ ID NO:38 (ligand, also called purified wild type feline IL-1β; recombinant feline wild type IL-1β) AAIQSQDYTFRDISQKSLVLSGSYELRALHLNGQNMNQQVVFRMSFVHGEENSKKIPVVLCIKKNNLYLSCVMKDGKPTLQLEMLDPKVYPKKKMEKRFVFNKTEIKGNVEFESSQFPNWYISTSQAEEMPVFLGNTKGGQDITDFIMESAS", "values": [
      {"measurement": "binding result", "setting": "[1]", "result": "binds"}
    ]}
  ]
}
